{
  "source": "paper PMC4780118",
  "about": "“Mechanisms involved in xyloglucan catabolism by the cellulosome-producing bacterium Ruminiclostridium cellulolyticum” (Scientific Reports, 2016)",
  "molecules": {"B1": {"name": "Xyl31A (Ruminiclostridium cellulolyticum H10) (protein)", "chain": "MKFLNGYWMSKEGYSLYYPSEAYRIEKSGDVLRIFAPCNQINHRGDTLGGPALTIELSSPAEDVIRISVYHYKGVKKAGPYFELNTPGISPSISEDEDAVWFGSGQIKARIDKKTYNIDYYRGDERLTGSGWRHLAYIKHESGQTYMREQLDLDVGECVYGLGERFTPFVKNGQTVDIWNQDGGTCTEQSYKNIPFYITNRGYGVFVNDPGLVSFEICSEVVSRSQFSVEGESLDYFIIGGSDCKEVISNYTALTGRPAIPPAWSFGLWLSTSFTTNYDEKTVTSFINGMSKRRIPLSVFHFDCFWMKEFNWCDFIWDKDVFPDPKKMLSKLKEKGLHICVWINSYVSQESVLFDEGMQKGYFIHKKNGSVWQWDMWQPGMAIVDFTNPDACNWFSQKLLNLVDMGVDCFKTDFGERIPTEDVVYYDGSDPVKMHNFYTYLYNRTVFDTLKQVGKEAVVFARSATAGSQKFPVHWGGDCTADFSSMAESLRGGLSLGLCGFGFWSHDIGGFEQTATADVYKRWLAFGMLSSHSRLHGSTGYRVPWLYDEEAVDVLRFFANLKCRLMPYIYKTAIQASQQGLPSARAMFVEFPEDPACTTLDRQYMLGDSLLVAPVFSKSGLVEYYLPLGEWYNLLTGEIVTGGSYRKEKHNYMSLPLFVRPGSLLAIGDNEEETVYEYAQGVRLLLTPLADGYEASTSVYEKDGHEALNVTVNRKESDITVIAEGDGKPWSIKLCGITAKGCTGGTIEKEQDGIVFMPGNSTGSYTVRIL", "notes": "C-terminal His6 (pET28a); E. coli BL21(DE3)"}, "B2": {"name": "Gal42A (Ruminiclostridium cellulolyticum H10) (protein)", "chain": "MDKYMPIGMNFPHILHGGDYNPDQWLKAPKILDEDFRLMKLAHCNVMTIGIFSWMALEPEEGKFDFSWLDEIMDKLSKNEMTAILATPSGAKPSWMSQKYPEILRTQADRLKDFHGGRHNHCLTSPIYRKKVSQINRLLAERYARHPALILWHISNEYSGECHCPLCQEAFRSFLMKKYEGDLERLNHEWWTGFWAHRYTDWSQIESPSPRGEHETHGLILDWKRFVSHQTIDFLKNEIKPLRELTPEISVTTNLMGTFPGLEYRELSKEIDVVSWDNYPTWHTSEQPDWKIGIRTSFVHDINRSLKQGKPFMMMESTPSTVNWQKVNKLKRPGMHMLSSLQAVAHGSDTVQYFQWRKSRGSFEKFHGAVVDHVGHENTRVFREVAQVGQVLEKLDEVVGTTVHPKVAIIFDWENRWAMEEAQALARDRIKYEETCVAHYTAFWKRGVSVDIIGARDNLSQYKLVIAPMLYLTHPGVGERIETFVNEGGTFVATYWSGIVNENDLCHLGGFPGPLRAVTGIWSEEIDTMHPDENNSLILSDNSLGLSGTYRVQDFCDLVHAESAEVLARYGEEFYAGRPALTVNRFGKGNAYYMAARTGEDFLEDFYNALMKKLTLSRTLDVELPCGVTSQLRTDGQNRYIFLMNFNHEKQDIQLTKGLTDMFTGEIRQGMLELAPFDVKVLKAKI"}, "B3": {"name": "Glu3A (Ruminiclostridium cellulolyticum H10) (protein)", "chain": "MQYDQIDKKIDELLSMMTLEEKAGMCHGAGLFRTAGVPRLGIPPLVFSDGPMGIRNEFADDNWNTVGGNTDFVTYLPANTALAATFNRTLAESLGEVLGCEARGRGKDVILAPGVNIIRTPLCGRNYEYFSEDPILTAELAASFIKGVQRFDVAACVKHFAANNQETERLAVSAEVDELTLRELYFPAFEASVRAGVLTVMTAYNRLNGTFCSHSRQLITEILREEWGFNGVVVSDWGAVHDTESPAIAGLDIEMNVTSNFNEYFFAKPLINAIKDGKIPERMLDDKVRRILRLMFRLNMFSKDRKRGGFNLPQHQQAVLDAAKESFVLLKNDREVLPLNADGIKTVAVIGSNADKKHSSGGDSAAVKALYEVTPLSGIVMRLASGAKVTYYPGCPDETHYKEEFHIPSNADEKTRADIEEKARAADEDYRKIQMRLEDEAIQAAKTADAVIFIGGNGHEQESEGRDRPDMALPYEQDKLLSRVLDANPNTVVVIISGSPVNMSGWIDKAPTVMQGFFSGMHGGTALAAVLFGDENPSGHLPFTIPLKEEETGASALGEYPGGETVCYSEGLFVGYRYHDAFNIPPLFPFGYGLSYTTFSLANESFRRLPCVGTEYEIHVDITNSGNRPGAQSVQLYVEPEKKDGSPIRTLKGFEKTYLNPDETKTITFKLDERTFSEFRPHEGWVFVPGNYTIHIGTSSRELPIAIALAL"}},
  "key": {"SBP2458": {"target": "T1, SBP2458 (Ruminiclostridium cellulolyticum, UniProt B8I622)", "T1 construct": "gene Ccel_2458", "T1 sequence (B8I622 entry or part of it)": "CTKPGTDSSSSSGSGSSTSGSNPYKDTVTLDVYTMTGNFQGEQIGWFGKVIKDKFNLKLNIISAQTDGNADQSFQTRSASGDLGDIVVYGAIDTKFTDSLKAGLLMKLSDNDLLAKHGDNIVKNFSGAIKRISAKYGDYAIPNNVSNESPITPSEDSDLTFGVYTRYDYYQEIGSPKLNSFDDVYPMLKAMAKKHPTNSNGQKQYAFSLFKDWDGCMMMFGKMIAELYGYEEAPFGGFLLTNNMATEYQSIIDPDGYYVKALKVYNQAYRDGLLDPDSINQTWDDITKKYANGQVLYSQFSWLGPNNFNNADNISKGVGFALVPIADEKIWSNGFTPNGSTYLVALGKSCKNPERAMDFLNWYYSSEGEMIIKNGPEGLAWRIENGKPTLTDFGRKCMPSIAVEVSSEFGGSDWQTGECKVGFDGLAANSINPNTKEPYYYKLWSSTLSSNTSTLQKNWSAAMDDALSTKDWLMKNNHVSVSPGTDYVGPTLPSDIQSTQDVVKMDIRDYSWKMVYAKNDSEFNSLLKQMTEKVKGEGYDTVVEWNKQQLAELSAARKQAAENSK", "assay": "isothermal titration calorimetry", "type": "binding", "details": "150 mM NaCl, 25 mM HEPES pH 7.0, 20 °C; single-site model"}, "pNP release kinetics": {"substrate": "O=[N+]([O-])c1ccc(O[C@H]2OC[C@@H](O)[C@H](O)[C@H]2O)cc1", "assay": "pNP release kinetics", "type": "biochemical, Ruminiclostridium cellulolyticum", "details": "assay as in ref. 19"}, "purified protein [1]": {"substrate": "O=[N+]([O-])c1ccc(O[C@@H]2O[C@H](CO)[C@H](O)[C@H](O)[C@H]2O)cc1", "assay": "purified protein", "details": "assay as in ref. 19"}, "purified protein [2]": {"substrate": "O=[N+]([O-])c1ccc(O[C@@H]2O[C@H](CO)[C@@H](O)[C@H](O)[C@H]2O)cc1", "assay": "purified protein", "details": "assay as in ref. 19"}},
  "data": [
    {"molecule": "OC[C@H]1OC(O)[C@H](O)[C@@H](O)[C@@H]1O[C@@H]1O[C@H](CO[C@H]2OC[C@@H](O)[C@H](O)[C@H]2O)[C@@H](O[C@@H]2O[C@H](CO[C@H]3OC[C@@H](O)[C@H](O)[C@H]3O)[C@@H](O[C@@H]3O[C@H](CO[C@H]4OC[C@@H](O)[C@H](O)[C@H]4O)[C@@H](O)[C@H](O)[C@H]3O)[C@H](O)[C@H]2O)[C@H](O)[C@H]1O", "note": "(stereo partly shown) [XXXG]", "values": [
      {"measurement": "Kd", "setting": "SBP2458", "value": "3.65 ± 1.1", "unit": "nM"}
    ]},
    {"molecule": "B1", "values": [
      {"measurement": "Km", "setting": "pNP release kinetics", "value": "1290 ± 150", "unit": "µM"},
      {"measurement": "kcat", "setting": "pNP release kinetics", "value": "12 ± 1.2 μmol product per μmol enzyme × min^−1"},
      {"measurement": "kcat/Km", "setting": "pNP release kinetics", "value": 155, "unit": "M⁻¹ s⁻¹"}
    ]},
    {"molecule": "B2", "values": [
      {"measurement": "Km", "setting": "purified protein [1]", "value": "1560 ± 300", "unit": "µM"},
      {"measurement": "kcat", "setting": "purified protein [1]", "value": "4,800 ± 320 μmol product per μmol enzyme × min^−1"},
      {"measurement": "kcat/Km", "setting": "purified protein [1]", "value": 51300, "unit": "M⁻¹ s⁻¹"}
    ]},
    {"molecule": "B3", "values": [
      {"measurement": "Km", "setting": "purified protein [2]", "value": "44600 ± 19000", "unit": "µM"},
      {"measurement": "kcat", "setting": "purified protein [2]", "value": "1,350 ± 164 μmol product per μmol enzyme × min^−1"},
      {"measurement": "kcat/Km", "setting": "purified protein [2]", "value": 500, "unit": "M⁻¹ s⁻¹"}
    ]}
  ]
}
